Measured values published in PMC9036120.
Like-named read-outs stand apart in the source and are kept apart here.

T1: PPARA;RXRA (mouse;mouse, UniProt P23204;P28700 1-468;1-467, |)
T1 sequence 1: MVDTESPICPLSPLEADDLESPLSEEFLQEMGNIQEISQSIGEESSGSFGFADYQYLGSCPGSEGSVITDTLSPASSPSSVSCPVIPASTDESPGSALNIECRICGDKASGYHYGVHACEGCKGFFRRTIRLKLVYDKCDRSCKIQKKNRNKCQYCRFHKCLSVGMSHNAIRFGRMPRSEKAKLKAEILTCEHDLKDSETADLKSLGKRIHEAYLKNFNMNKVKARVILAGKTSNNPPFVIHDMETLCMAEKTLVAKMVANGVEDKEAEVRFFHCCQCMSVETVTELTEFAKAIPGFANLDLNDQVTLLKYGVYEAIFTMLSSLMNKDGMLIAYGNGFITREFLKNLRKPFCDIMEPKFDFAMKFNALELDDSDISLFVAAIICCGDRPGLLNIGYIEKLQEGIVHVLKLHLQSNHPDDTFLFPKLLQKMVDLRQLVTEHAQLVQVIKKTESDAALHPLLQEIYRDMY
T1 sequence 2: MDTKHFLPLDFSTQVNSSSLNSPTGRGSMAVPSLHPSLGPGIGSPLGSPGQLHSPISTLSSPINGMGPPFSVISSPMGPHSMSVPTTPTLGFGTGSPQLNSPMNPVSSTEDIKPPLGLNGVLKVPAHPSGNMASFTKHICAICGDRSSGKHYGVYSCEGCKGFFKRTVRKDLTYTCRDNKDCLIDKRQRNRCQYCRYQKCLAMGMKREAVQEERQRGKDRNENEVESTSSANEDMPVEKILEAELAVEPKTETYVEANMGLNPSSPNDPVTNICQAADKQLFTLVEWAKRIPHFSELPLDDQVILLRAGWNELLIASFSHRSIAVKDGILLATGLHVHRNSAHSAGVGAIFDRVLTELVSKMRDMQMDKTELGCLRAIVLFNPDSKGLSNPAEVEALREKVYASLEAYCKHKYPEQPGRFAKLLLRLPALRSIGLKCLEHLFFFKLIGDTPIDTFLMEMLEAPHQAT

B1: E2f8-PPRE4 (dsDNA)
DNA 1: AGGCCCAGTAGGTTAAAGGGCTGACATTTTA
DNA 2: TAAAATGTCAGCCCTTTAACCTACTGGGCCT
B2: Ppara-PPRE6 (dsDNA)
DNA 1: AAGTTTCAATGACCTTTGGGACAGTTAACTA
DNA 2: TAGTTAACTGTCCCAAAGGTCATTGAAACTT
B3: Control (Acox1)-PPRE (dsDNA)
DNA 1: TCCCGAACGTGACCTTTGTCCTGGTCCCCTG
DNA 2: CAGGGGACCAGGACAAAGGTCACGTTCGGGA

Legend:
[1] = biological target: T1, PPARA;RXRA; experiment: EMSA
[2] = biological target: T1, PPARA;RXRA; experiment: EMSA; remark: listed apart in the source

Binder | binding result [1] | binding result [2]
B1 | binds | –
B2 | binds | –
B3 | – | binds
